Results as given in US12528864 (GlaxoSmithKline, dated 2026).
Positions count from the first letter of the chain named.

T1: human CD96v2 expressed on cells (CHO cells; transiently transfected HEK cells) (human, UniProt P40200-2 22-569)
T1 construct: whole, on cells; the cell is named under assay; also called CHO-huCD96; hCD96v2
T1 sequence (looked up): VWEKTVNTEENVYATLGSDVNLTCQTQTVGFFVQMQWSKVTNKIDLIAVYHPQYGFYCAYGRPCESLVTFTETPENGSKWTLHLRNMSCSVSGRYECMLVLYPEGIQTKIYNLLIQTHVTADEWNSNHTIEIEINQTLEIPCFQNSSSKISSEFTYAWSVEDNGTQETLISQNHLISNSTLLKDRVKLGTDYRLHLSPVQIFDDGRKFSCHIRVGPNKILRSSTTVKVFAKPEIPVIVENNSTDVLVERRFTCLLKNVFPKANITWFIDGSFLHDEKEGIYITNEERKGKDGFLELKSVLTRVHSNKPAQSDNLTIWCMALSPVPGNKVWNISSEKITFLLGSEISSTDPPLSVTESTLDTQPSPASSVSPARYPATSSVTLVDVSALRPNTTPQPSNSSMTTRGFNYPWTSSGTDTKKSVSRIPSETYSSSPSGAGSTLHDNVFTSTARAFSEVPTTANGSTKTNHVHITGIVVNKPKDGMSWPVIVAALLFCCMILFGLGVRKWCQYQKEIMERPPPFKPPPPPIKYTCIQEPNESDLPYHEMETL

T2: cynomolgus monkey CD96v2 expressed on cells (CHO cells; transiently transfected HEK cells) (cynomolgus monkey, UniProt A0A2K5TWV6 22-569)
T2 construct: the cell is named under assay; also called CHO-cyCD96; Cyno CD96v2
T2 sequence: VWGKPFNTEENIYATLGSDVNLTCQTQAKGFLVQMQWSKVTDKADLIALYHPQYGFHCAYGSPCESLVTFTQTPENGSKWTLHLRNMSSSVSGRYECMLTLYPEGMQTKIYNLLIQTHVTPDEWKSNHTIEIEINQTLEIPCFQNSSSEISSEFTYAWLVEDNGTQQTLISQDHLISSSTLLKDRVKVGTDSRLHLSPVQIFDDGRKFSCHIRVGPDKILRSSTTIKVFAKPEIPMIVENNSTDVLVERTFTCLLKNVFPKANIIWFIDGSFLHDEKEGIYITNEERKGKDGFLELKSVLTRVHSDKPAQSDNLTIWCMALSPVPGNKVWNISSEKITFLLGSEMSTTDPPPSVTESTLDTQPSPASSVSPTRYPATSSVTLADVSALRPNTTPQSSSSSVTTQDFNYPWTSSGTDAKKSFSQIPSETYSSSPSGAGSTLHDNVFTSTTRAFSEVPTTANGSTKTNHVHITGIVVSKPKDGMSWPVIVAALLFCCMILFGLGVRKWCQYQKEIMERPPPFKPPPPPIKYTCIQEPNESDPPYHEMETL

B1: 42Y073-2B04-46 (antibody, V domains shown)
VH: QVQLQQWGAGLLKPSETLSLTCAVYGGSFRRYYWSWIRQPPGKGLEWIGEIDGWGSTNYNPSLKSRVTISVDTSKNQFSLKLSSVTAADTAVYYCARGGSVDFWSGSDYYYYMDVWGKGATVTVSS
VL: EIVLTQSPATLSLSPGERATLSCRASQSVSSYLAWYQQKPGQAPRLLIYDASKRATGIPARFSGSGSGTDFTLTISSLEPEDFAVYYCQQLDNWPITFGGGTKVEIK
notes: Fully human antibody; also called 42Y073-2804-46
B2: 42Y073-1A01-103 (antibody, V domains shown)
VH: QVQLVQSGAEVKKPGASVKVSCKASGYTFTAYQMHWVRQAPGQGLEWMGIINPAGGWTSYAQKFQGRVTMTRDTSTSTVYMELSSLRSEDTAVYYCARETAYYTTKGNWFDPWGQGTLVTVSS
VL: DIQMTQSPSSLSASVGDRVTITCRASQSISSYLNWYQQKPGKAPKLLIYAASSLQSGVPSRFSGSGSGTDFTLTISSLQPEDFATYYCQQSLYPPRTFGGGTKVEIK
notes: Fully human antibody
B3: 42Y073-86F04-6 (antibody, V domains shown)
VH: QVQLVQSGAEVKKPGSSVKVSCKASGGTFSGHAISWVRQAPGQGLEWMGGIIPIFGRARYAQKFQGRVTITADESTSTAYMELSSLRSEDTAVYYCARLLGESGMDVWGQGTTVTVSS
VL: B2 VL with S91P, L92Y, Y93F, P94S, R96P
notes: Fully human antibody
B4: 42Y073-86F04-88 (antibody, V domains shown)
VH: B3 VH with G31S, H32S, R59N
VL: B2 VL with S91P, L92Y, Y93F, P94S, R96P
notes: Fully human antibody
B5: 42Y073-1A01-100 (antibody, V domains shown)
VH: B2 VH with A31T, Q33R, A54S, W57L, S59Q
VL: B2 VL
notes: Fully human antibody
B6: 42Y073-86F04-33 (antibody, V domains shown)
VH: B3 VH with G31S, H32Y, I52L, R59N
VL: B2 VL with S91P, L92Y, Y93F, P94S, R96P
notes: Fully human antibody
B7: 42Y073-86F04-4 (antibody, V domains shown)
VH: B3 VH with S30E, G31S, H32E
VL: B2 VL with S91P, L92Y, Y93F, P94S, R96P
notes: Fully human antibody
B8: 42Y073-1A01-85 (antibody, V domains shown)
VH: B2 VH with A31S, Q33P, A54S, W57F, S123A
VL: B2 VL
notes: Fully human antibody
B9: 42Y073-1A01-191 (antibody, V domains shown)
VH: B2 VH with A31K, Q33R, A54Q, W57S, S123A
VL: B2 VL
notes: Fully human antibody
B10: 42Y073-1A01-126 (antibody, V domains shown)
VH: B2 VH with A31R, Q33N, I50W, W57S, S123A
VL: B2 VL
notes: Fully human antibody
B11: 42Y073-86F04-18 (antibody, V domains shown)
VH: B3 VH with G31S, H32R, F55M, R57T
VL: B2 VL with S91P, L92Y, Y93F, P94S, R96P
notes: Fully human antibody
B12: 42Y073-86F04-3 (antibody, V domains shown)
VH: B3 VH with G31Y, H32N, F55M, R57T
VL: B2 VL with S91P, L92Y, Y93F, P94S, R96P
notes: Fully human antibody
B13: 42Y073-86F04-5 (antibody, V domains shown)
VH: B3 VH with G31S, A58G, R59K
VL: B2 VL with S91P, L92Y, Y93F, P94S, R96P
notes: Fully human antibody
B14: 42Y073-1A01-97 (antibody, V domains shown)
VH: B2 VH with A31R, Y32A, Q33A, W57Y
VL: B2 VL
notes: Fully human antibody
B15: 42Y073-86F08-16 (antibody)
heavy: not shown
light: DIQLTQSPSSLSASVGDRVTITCRASQSISSYLNWYQQKPGKAPKLLIYAASSLQSGVPSRFSGSGSGTDFTLTISSLQPEDFATYYCQQVLHTITFGGGTKVEIKRTVAAPSVFIFPPSDEQLKSGTASVVCLLNNFYPREAKVQWKVDNALQSGNSQESVTEQDSKDSTYSLSSTLTLSKADYEKHKVYACEVTHQGLSSPVTKSFNRGEC
notes: also called 42Y073-88F08-16
B16: 42Y073-86F08-1 (antibody, V domains shown)
VH: QVQLVQSGAEVKKPGSSVKVSCKASGGTFSSYAISWVRQAPGQGLEWMGGIIPIFGTASYAQKFQGRVTITADESTSTAYMELSSLRSEDTAVYYCARGAGYYGDKDPMDVWGQGTTVTVSS
VL: DIQLTQSPSSLSASVGDRVTITCRASQSISSYLNWYQQKPGKAPKLLIYAASSLQSGVPSRFSGSGSGTDFTLTISSLQPEDFATYYCQQVLHTITFGGGTKVEIK
B17: 42Y073-86F08-8 (antibody, V domains shown)
VH: B16 VH with S30W, S31L, I54Q, F55L, S59N
VL: B16 VL
notes: Fully human antibody; also called 42Y073-88F08-8
B18: 42Y073-86F08-47 (antibody, V domains shown)
VH: B16 VH with S31Q, S35H, G50V, T57K, S59N
VL: B16 VL
notes: Fully human antibody
B19: 42Y073-86F08-3 (antibody, V domains shown)
VH: B16 VH with S30V, S31N, I54A, F55L, S59N
VL: B16 VL
notes: Fully human antibody
B20: 42Y073-86F08-17 (antibody, V domains shown)
VH: B16 VH with S30R, S31E, I54V, S59N
VL: B16 VL
notes: Fully human antibody; also called 42Y073-88F08-17
B21: 42Y073-86F08-4 (antibody, V domains shown)
VH: B16 VH with S31E, S35H, G50N, S59G
VL: B16 VL
notes: Fully human antibody
B22: 42Y073-86F08-22 (antibody, V domains shown)
VH: B16 VH with S16A, G27Y, S30D, I34M, S35H, S59W
VL: B16 VL
notes: Fully human antibody

biological target: T1, human CD96v2 expressed on cells (CHO …); assay: flow cytometry, inhibition of human CD155-Fc-AF647 binding to CHO cells expressing human CD96v2; competitor CD155-Fc

Row | IC50 [pM] | Binder
1 | 400 | B1
2 | 30 | B2
3 | 250 | B3
4 | 210 | B4
5 | 60 | B5
6 | 710 | B6
7 | 180 | B7
8 | 30 | B8
9 | 30 | B9
10 | 100 | B10
11 | 590 | B11
12 | 310 | B12
13 | 380 | B13
14 | 30 | B14
15 | 780 | B15
16 | 330 | B16
17 | 930 | B17
18 | 170 | B18
19 | 280 | B19
20 | 520 | B20
21 | 380 | B21
22 | 410 | B22

biological target: T1, human CD96v2 expressed on cells (CHO …); assay: flow cytometry on CHO cells expressing human CD96v2

Row | EC50 [pM] | Binder
23 | 1060 | B1
24 | 20 | B2
25 | 60 | B3
26 | 50 | B4
27 | 20 | B5
28 | 40 | B6
29 | 40 | B7
30 | 470 | B8
31 | 10 | B9
32 | 20 | B10
33 | 70 | B11
34 | 40 | B12
35 | 50 | B13
36 | 770 | B14
37 | 30 | B15
38 | 70 | B16
39 | 170 | B17
40 | 50 | B18
41 | 40 | B19
42 | 100 | B20
43 | 40 | B21
44 | 30 | B22

biological target: T2, cynomolgus monkey CD96v2 expressed on …; assay: flow cytometry on CHO cells expressing cynomolgus CD96v2

Row | EC50 [pM] | Binder
45 | 40 | B1
46 | 30 | B2
47 | 110 | B3
48 | 160 | B4
49 | 40 | B5
50 | 50 | B6
51 | 70 | B7
52 | 10 | B8
53 | 20 | B9
54 | 30 | B10
55 | 110 | B11
56 | 40 | B12
57 | 70 | B13
58 | 20 | B14
59 | 40 | B15
60 | 30 | B17
61 | 60 | B18
62 | 30 | B20
63 | 70 | B21
64 | 90 | B22
